Reference: the Immune Epitope Database (IEDB)
Blank lines part the entries; values can stand above or below the sequence they belong to.

Experiments:
[1] = molecular target: HLA-A*68:02; assay: IEDB peptide-MHC binding, purified MHC/competitive/fluorescence; filed as Kd, often an IC50 or EC50 that approximates it; ≥ and ≤ were set here for values at or beyond the usual limits of such assays
[2] = molecular target: HLA-B*44:02; assay: IEDB peptide-MHC binding, purified MHC/direct/fluorescence; filed as Kd, often an IC50 or EC50 that approximates it; ≥ and ≤ were set here for values at or beyond the usual limits of such assays; details: source organism: Marburg virus - Musoke, Kenya, 1980
[3] = molecular target: HLA-A*31:01; assay: as above; details: source organism: Marburg virus - Musoke, Kenya, 1980
[4] = molecular target: HLA-B*18:01; assay: as above; details: source organism: Marburg virus - Musoke, Kenya, 1980
[5] = molecular target: HLA-A*69:01; assay: as above; details: source organism: Marburg virus - Musoke, Kenya, 1980
[6] = molecular target: HLA-A*26:02; assay: as above; details: source organism: Orthomarburgvirus marburgense
[7] = molecular target: HLA-A*26:03; assay: as above; details: source organism: Orthomarburgvirus marburgense
[8] = molecular target: HLA-A*11:01; assay: as above; details: source organism: Marburg virus - Musoke, Kenya, 1980
[9] = molecular target: HLA-B*48:01; assay: as above; details: source organism: Marburg virus - Musoke, Kenya, 1980
[10] = molecular target: HLA-B*27:05; assay: as above; details: source organism: Marburg virus - Musoke, Kenya, 1980
[11] = molecular target: HLA-B*57:01; assay: as above; details: source organism: Marburg virus - Musoke, Kenya, 1980
[12] = molecular target: HLA-B*08:02; assay: as above; details: source organism: Orthomarburgvirus marburgense
[13] = molecular target: HLA-B*15:17; assay: as above; details: source organism: Marburg virus - Musoke, Kenya, 1980
[14] = molecular target: HLA-B*39:01; assay: as above; details: source organism: Orthomarburgvirus marburgense
[15] = molecular target: HLA-A*02:01; assay: as above; details: source organism: Marburg virus - Musoke, Kenya, 1980
[16] = molecular target: HLA-B*07:02; assay: as above; details: source organism: Marburg virus - Musoke, Kenya, 1980
[17] = molecular target: HLA-B*58:01; assay: as above; details: source organism: Marburg virus - Musoke, Kenya, 1980
[18] = molecular target: HLA-A*01:01; assay: as above; details: source organism: Marburg virus - Musoke, Kenya, 1980
[19] = molecular target: HLA-B*08:03; assay: as above; details: source organism: Orthomarburgvirus marburgense
[20] = molecular target: HLA-B*15:09; assay: as above; details: source organism: Orthomarburgvirus marburgense
[21] = molecular target: HLA-B*40:01; assay: as above; details: source organism: Marburg virus - Musoke, Kenya, 1980
[22] = molecular target: HLA-A*26:01; assay: IEDB peptide-MHC binding, purified MHC/competitive/fluorescence; filed as Kd, often an IC50 or EC50 that approximates it; ≥ and ≤ were set here for values at or beyond the usual limits of such assays; details: source organism: Pleistophora sp. LS
[23] = molecular target: HLA-A*31:01; assay: as above; details: source organism: Pleistophora sp. LS
[24] = molecular target: HLA-B*18:01; assay: as above; details: source organism: Pleistophora sp. LS
[25] = molecular target: HLA-A*11:01; assay: as above; details: source organism: Pleistophora sp. LS
[26] = molecular target: HLA-A*30:01; assay: as above; details: source organism: Pleistophora sp. LS
[27] = molecular target: HLA-B*48:01; assay: as above; details: source organism: Pleistophora sp. LS
[28] = molecular target: HLA-B*27:05; assay: as above; details: source organism: Pleistophora sp. LS
[29] = molecular target: HLA-B*57:01; assay: as above; details: source organism: Pleistophora sp. LS
[30] = molecular target: HLA-B*08:02; assay: as above; details: source organism: Pleistophora sp. LS
[31] = molecular target: HLA-B*15:17; assay: as above; details: source organism: Pleistophora sp. LS
[32] = molecular target: HLA-B*39:01; assay: as above; details: source organism: Pleistophora sp. LS
[33] = molecular target: HLA-A*02:01; assay: as above; details: source organism: Pleistophora sp. LS
[34] = molecular target: HLA-B*07:02; assay: as above; details: source organism: Pleistophora sp. LS
[35] = molecular target: HLA-B*58:01; assay: as above; details: source organism: Pleistophora sp. LS
[36] = molecular target: HLA-A*01:01; assay: as above; details: source organism: Pleistophora sp. LS
[37] = molecular target: HLA-B*08:03; assay: as above; details: source organism: Pleistophora sp. LS
[38] = molecular target: HLA-B*15:09; assay: as above; details: source organism: Pleistophora sp. LS
[39] = molecular target: HLA-B*40:01; assay: as above; details: source organism: Pleistophora sp. LS
[40] = molecular target: HLA-A*02:03; assay: as above; details: source organism: Pleistophora sp. LS
[41] = molecular target: HLA-B*35:01; assay: as above; details: source organism: Pleistophora sp. LS
[42] = molecular target: HLA-B*15:02; assay: as above; details: source organism: Giardia lamblia ATCC 50803
[43] = molecular target: HLA-B*38:01; assay: IEDB peptide-MHC binding, purified MHC/competitive/radioactivity; filed as Kd, often an IC50 or EC50 that approximates it; ≥ and ≤ were set here for values at or beyond the usual limits of such assays; details: source organism: Homo sapiens

Sequence: SEINNLNLT
Kd ([1]; source organism: Orthomarburgvirus marburgense): ≥ 20 µM | Kd [2]: ≥ 20 µM | Kd [3]: ≥ 20 µM | Kd [4]: 8.07 µM | Kd [5]: ≥ 20 µM | Kd [6]: ≥ 20 µM | Kd [7]: ≥ 20 µM | Kd [8]: ≥ 20 µM | Kd [9]: ≥ 20 µM | Kd [10]: ≥ 20 µM | Kd [11]: ≥ 20 µM | Kd [12]: ≥ 20 µM | Kd [13]: ≥ 20 µM | Kd [14]: ≥ 20 µM | Kd [15]: ≥ 20 µM | Kd [16]: ≥ 20 µM | Kd [17]: ≥ 20 µM | Kd [18]: ≥ 20 µM | Kd [19]: ≥ 20 µM | Kd [20]: ≥ 20 µM | Kd [21]: 7 µM

Kd [22]: ≥ 20 µM | Kd [23]: ≥ 20 µM | Kd [24]: ≤ 0.001 µM | Kd [25]: ≥ 20 µM | Kd [26]: ≥ 20 µM | Kd [27]: ≥ 20 µM | Kd [28]: ≥ 20 µM | Kd [29]: ≥ 20 µM | Kd [30]: ≥ 20 µM | Kd [31]: ≥ 20 µM | Kd [32]: 0.949 µM | Kd [33]: 0.239 µM | Kd ([1]; source organism: Pleistophora sp. LS): ≥ 20 µM | Kd [34]: ≥ 20 µM | Kd [35]: ≥ 20 µM | Kd [36]: ≥ 20 µM | Kd [37]: ≥ 20 µM | Kd [38]: ≥ 20 µM | Kd [39]: 0.04 µM | Kd [40]: ≥ 20 µM | Kd [41]: ≥ 20 µM
Sequence: VELQIGWTV

Sequence: TLAHTHAAY
Kd [42]: 0.0671 µM

Kd [43]: 2.48 µM
Sequence: SHETVTIEL
